The target in test [1] is T1, human EphB4 extracellular region-SEAP-His protein (human, UniProt P54760 16-539).
T1 construct: extracellular domain; also called Eph receptor extracellular region-SEAP-His protein; not shown: secretory alkaline phosphatase (SEAP); histidine tag
T1 sequence (looked up): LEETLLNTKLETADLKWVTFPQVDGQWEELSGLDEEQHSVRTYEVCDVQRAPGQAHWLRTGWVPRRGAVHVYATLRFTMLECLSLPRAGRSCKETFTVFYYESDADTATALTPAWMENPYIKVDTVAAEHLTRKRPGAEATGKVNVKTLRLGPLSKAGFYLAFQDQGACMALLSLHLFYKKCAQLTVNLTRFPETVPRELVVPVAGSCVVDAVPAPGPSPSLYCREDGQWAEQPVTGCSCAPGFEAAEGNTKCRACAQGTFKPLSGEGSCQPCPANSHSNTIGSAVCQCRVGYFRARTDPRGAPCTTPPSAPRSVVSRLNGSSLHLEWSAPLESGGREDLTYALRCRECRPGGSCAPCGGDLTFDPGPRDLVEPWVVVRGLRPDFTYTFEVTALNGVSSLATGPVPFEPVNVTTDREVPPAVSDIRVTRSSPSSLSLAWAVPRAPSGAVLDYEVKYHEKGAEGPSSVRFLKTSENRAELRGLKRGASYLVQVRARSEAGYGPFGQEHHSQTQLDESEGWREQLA
The test is described as follows: ELISA: SEAP-His proteins (1 nM) captured on anti-6-His antibody, antibody B 10 µg/mL with human IgG 100 µg/mL, HRP anti-human IgG, OD450 as % of human EphA4-SEAP-His.

Test [2] concerns the target T2, human EphB2 extracellular region-SEAP-His protein (human, UniProt P29323 19-543).
T2 construct: extracellular domain; also called Eph receptor extracellular region-SEAP-His protein; not shown: secretory alkaline phosphatase (SEAP); histidine tag
T2 sequence (looked up): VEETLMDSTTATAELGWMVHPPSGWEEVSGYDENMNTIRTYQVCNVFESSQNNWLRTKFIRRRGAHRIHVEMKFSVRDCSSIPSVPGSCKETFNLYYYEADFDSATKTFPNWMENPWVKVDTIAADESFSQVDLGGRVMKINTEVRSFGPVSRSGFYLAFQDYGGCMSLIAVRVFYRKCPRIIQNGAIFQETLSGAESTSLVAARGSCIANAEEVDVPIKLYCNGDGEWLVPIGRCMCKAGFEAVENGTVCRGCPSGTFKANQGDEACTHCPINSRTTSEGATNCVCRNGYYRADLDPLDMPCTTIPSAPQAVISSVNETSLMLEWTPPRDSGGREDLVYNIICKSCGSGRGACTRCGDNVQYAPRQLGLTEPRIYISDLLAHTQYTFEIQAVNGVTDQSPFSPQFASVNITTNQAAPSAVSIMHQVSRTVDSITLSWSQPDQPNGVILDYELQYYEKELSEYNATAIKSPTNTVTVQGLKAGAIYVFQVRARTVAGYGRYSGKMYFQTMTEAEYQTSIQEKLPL
Nature of the test: ELISA: SEAP-His proteins (1 nM) captured on anti-6-His antibody, antibody A 10 µg/mL with human IgG 100 µg/mL, HRP anti-mouse IgG, OD450 as % of human EphA4-SEAP-His. As to the method: (§1) Rabbit anti-6-His antibodies (Bethel Laboratories) were coated onto the wells of a 96-well plate (Nunc). After incubating at 4° C. overnight, the wells were blocked at room temperature for 1 hour by 1% Block Ace (DS Pharma Biomedical). After washing 3 times with 0.05% Tween 20/PBS (Thermo […]), each Eph receptor of human extracellular region-SEAP-His protein (final concentration 1 nM) was seeded into each well, and incubated at room temperature for 1 hour. After washing 3 times, human IgG solution (100 μg/mL, Mitsubishi Pharma Corporation) and antibody A (10 μg/mL) were supplemented to the wells, and incubated at room temperature for 1 hour. Horseradish peroxidase-labeled donkey anti-mouse IgG antibody (Jackson ImmunoResearch Laboratories) was added, and incubated at room, temperature for 1 hour. After washing 3 times, TMBZ (3,3′,5,5′-tetramethylbenzidine, Sigma) solution was added to the wells, and upon confirmation of modest coloring, an equal amount of quenching solution (1 N H₂SO₄, Wako Pure Chemicals) was added to the wells, and absorbance at 450 nm was read by a microplate reader (PerkinElmer).

Test [3] concerns the target T1, human EphB4 extracellular …. The description is as above. As to the method: as §1
The target in test [4] is T3, human EphA1 extracellular region-SEAP-His protein (human, UniProt P21709 26-547).
T3 construct: extracellular domain; also called Eph receptor extracellular region-SEAP-His protein; not shown: secretory alkaline phosphatase (SEAP); histidine tag
T3 sequence (looked up): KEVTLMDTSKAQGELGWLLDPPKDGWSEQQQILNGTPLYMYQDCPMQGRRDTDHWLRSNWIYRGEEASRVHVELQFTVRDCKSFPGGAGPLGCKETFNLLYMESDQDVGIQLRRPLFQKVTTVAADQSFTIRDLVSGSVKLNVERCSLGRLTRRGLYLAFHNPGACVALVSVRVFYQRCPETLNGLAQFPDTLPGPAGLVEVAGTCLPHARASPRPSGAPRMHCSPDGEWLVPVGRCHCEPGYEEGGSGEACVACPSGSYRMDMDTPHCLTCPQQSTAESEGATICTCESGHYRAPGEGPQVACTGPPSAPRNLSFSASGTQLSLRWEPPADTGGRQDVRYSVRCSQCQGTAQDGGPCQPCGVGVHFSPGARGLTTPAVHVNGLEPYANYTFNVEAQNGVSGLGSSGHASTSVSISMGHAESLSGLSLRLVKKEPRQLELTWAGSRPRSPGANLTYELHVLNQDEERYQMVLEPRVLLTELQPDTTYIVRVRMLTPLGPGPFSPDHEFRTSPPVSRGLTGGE
The test is described as above. As to the method: as §1

B1: humanized anti-EphA4 monoclonal antibody (antibody B) (antibody, human IgG2, V domains shown)
VH: QVQLVESGGGVVQPGRSLRLSCAVSGFSLTRFGVHWVRQAPGKGLEWVAVIWRGGSTDYNAAFMSRLTISKDNSKNTVYLQMNSLRAEDTAVYYCAKESLFGVYYDYGYYSMDYWGQGTTVTVSS
VL: DIQMTQSPSSLSASVGDRVTITCRASQEISGYLSWLQQKPGKAPKRLIYAASTLDSGVPSRFSGSRSGTEYTLTISSLQPEDFATYYCLQYASYPLTFGGGTKVEIKR
notes: expressed in Expi293F cells; also called humanized antibody of antibody A; HK2-42 / L1-8
B1: in test [1], the binding result is “no binding (tested: 10 µg/mL)”.

B2: mouse anti-EphA4 monoclonal antibody (antibody A) (antibody, mouse IgG1, kappa, V domains shown)
VH: QVQLKQSGPSLVQPSQSLSITCTVSGFSLTRYGVHWVRQSPGKGLEWLGVIWRGGSTDYNAAFMSRLSITKDNSKSQVFFKMNSLQADDTAIYYCAKESLFGVYYDYGYYSMDYWGQGTSVTVSS
VL: DIQMTQSPSSLSASLGERVSLTCRASQEISGYLSWLQQKPDGTIKRLIYAASTLDSGVPKRFSGSRSGSDYSLTISSLESEDFADYYCLQYASYPLTFGAGTKLELKR
notes: purified from hybridoma supernatant
With B2, the binding result in test [2], in test [3] and in test [4] was “no binding (tested: 10 µg/mL)” throughout.
